Changes are numbered by the printed parent chain.
B1: chAb2 (conjugate)
VH: QVQLQQPGAELVKPGASVKLSCKASGYTFTSYWMHWVKQRPGQGLEWIGMIHPDSGTTNYNEKFRSKATLTVDKSSSTAYMQLSSLTSEDSAVYYCAVYYGSTYWYFDVWGTGTTVTVSS
VL: DVVMTQTPLSLPVSLGDQAYISCRSSQSLVHINGNTYLHWYRQKPGQSPKLLIYKVSNRFSGVPDRFSGSGSGTDFTLKISRVEAEDLGVYFCSQSTHFPFTFGSGTKLEIK
modifications: conjugated payload not specified; Synthetic chAb2 VH amino acid sequence; Synthetic chAb2 VL amino acid sequence
B2: chAb6 (conjugate)
VH: QVQLQQSGAELMKPGASVKISCKATGYTFSRYWIEWVKQRPGHGLEWIGEILPGSGSTNYNEKFKGKATFTADTSSNTAYMQVSSLTSEDSAVHYCARRGYGYVPYALDYWGQGTSVTVSS
VL: EIQMTQTTSSLSASLGDRVTISCRASQDISNSLNWYQQKPDGTVNLLIYYTSRLYSGVPSRFSGSGSGTDYSLTISNLEQEDIATYFCQQGNTLPYTFGGGTKLEIK
B3: chAb6-CZ (conjugate)
VH: B2 VH
VL: B2 VL
B4: chAb16 (conjugate)
VH: EVKLLESGGGLVQPGGSLKLSCAASGFDFSRYWMSWVRQAPGKGLEWIGEINPDSSTINYTPSLKDKFIISRDNAKNTLYLQMSKVRSEDTALYYCARPGFGNYIYAMDYWGQGTSVTVSS
VL: B2 VL with E1D, S22N, S32F, N45K, S56L, Y96P
modifications: conjugated drug; Synthetic chAb16 VH amino acid sequence; Synthetic chAb16 VL amino acid sequence
B5: huAb18v1-CZ (conjugate)
VH: EVQLVQSGAEVKKPGSSVKVSCKASGYSFTSYTIHWVRQAPGQGLEWMGYINPNSRNTDYNQKFKDRVTITADKSTSTAYMELSSLRSEDTAVYYCARYSGSTPYWYFDVWGQGTTVTVSS
VL: DIQLTQSPSFLSASVGDRVTITCRASSSVSYMNWYQQKPGKAPKLLIYATSNLASGVPSRFSGSGSGTEFTLTISSLQPEDFATYYCQQWSSNPLTFGQGTKLEIK
B6: huAb18v3-CZ (conjugate)
VH: B5 VH with M48I, V68T, I70L, K74R
VL: B5 VL with A42S, L45P, L46W, G63V, G65V, F70H
B7: huAb18v4-CZ (conjugate)
VH: B5 VH with N61A, K65Q, D66G, I70L
VL: B5 VL with A42S, L45P, L46W, G63V, G65V, F70H
B8: huAb18v7-CZ (conjugate)
VH: B5 VH with N61A, K65Q, D66G, I70L
VL: EIVLTQSPDFQSVTPKEKVTITCRASSSVSYMNWYQQKPDQSPKPWIYATSNLASGVPSRFSVSVSGTDHTLTINSLEAEDAATYYCQQWSSNPLTFGQGTKLEIK
B9: huAb18v9-CZ (conjugate)
VH: B5 VH with M48I, V68T, I70L, K74R
VL: B8 VL
B10: huAb18v6-CZ (conjugate)
VH: B5 VH with N61A, K65Q, D66G, I70L
VL: B8 VL with P45L, W46L, Y48K, V63G, V65G, H70F
B11: chAb4-CZ (conjugate)
VH: QVQLQQPGAELVKPGASVKLSCKASGYSFTSYWMHWVKQRPGQGLEWIGMIHPNSGSNNYNEKFKSKATLTVDKSSNTAYMQLSSLTSEDSAVYYCARRLGLHFDYWGQGTTLTVSS
VL: DIVMTQSQKFMSTPVGDRVSITCKASQNVGTAVAWYQQKPGQSPKLLIYSASNRYTGVPDRFTGSGSGTDFTLTISNMQSEDLADYFCQQYSSYPYTFGGGTKLEIK
B12: huAb3v6-CZ (conjugate)
VH: EVQLVQSGAEVKKPGSSVKVSCKASGYTFSSYWMHWVRQAPGQGLEWIGLIHPDSGSTNYNEMFKNRATLTVDRSTSTAYVELSSLRSEDTAVYFCAGGGRLYFDYWGQGTTVTVSS
VL: DVVMTQSPLSLPVTPGEPASISCRSSQSLVHSNGDTYLRWYLQKPGQSPQLLIYKVSNRFSGVPDRFSGSGSGTDFTLKISRVEAEDVGVYYCSQSTHVPYTFGGGTKVEIK
B13: huAb3v1-CZ (conjugate)
VH: B12 VH with I48M, A68V, L70I, V72A, R74K, V81M, F95Y, G98R
VL: B12 VL with V2I
B14: chAb11-CZ (conjugate)
VH: EVKLVESGGGLVQPGGSLRLSCATSGFTFTNYYMSWVRQPPGKALEWLGFIRNKANDYTTEYSASVKGRFTISRDNSQSILYLQMNTLRAEDSATYYCARESPGNPFAYWGQGTLVTVSA
VL: DIVMTQSPSSLTVTAGEKVTMTCKSSQSLLNSGTQKNFLTWYQQKPGQPPKLLIYWASTRESGVPDRFTGSGSGTDFTLTISSVQAEDLAVYFCQNDYIYPLTFGAGTKLELK

How the values were obtained:
[1] = test system: HCC38 (breast cancer) cells; test: In vitro cell viability assay (CellTiter-Glo), HCC38; format: cell-based, human; settings: for cytotoxicity in cells expressing human B7-H3 (in words): antibody conjugated to synthon CZ; for IC50: ADC with synthon CZ, HCC38 breast cancer cells, viability after 5 days, read-out: Cytotoxicity (HCC38 cell line IC50nM)
Description: (§1) Nine anti-B7-H3 chimeric antibodies were conjugated to the Bcl-xL inhibiting (Bcl-xLi) synthon CZ (Example 2.1) using conjugation Method A described below. The resulting ADCs (anti-B7-H3 antibodies conjugated to synthon CZ) were tested for binding to cell surface human B7-H3 by FACS (as described in Example 6) and for cell cytotoxicity in cell lines expressing B7-H3. […] Table 6 provides cell surface binding and cytotoxicity activity of anti-B7-H3 chimera ADCs against breast cancer cell HCC38 expressing human B7-H3.
The tumor cell lines HCC38 (breast cancer), NCI-H1650 (NSCLC) and NCI-H847 (small cell lung cancer cell line) were obtained from American Type Culture Collection (ATCC). Cells were grown in 96-well culture plates using recommended growth media overnight at a density of 5×10^3 (HCC38) or 20×10^3 (NCI-H847) or 40×10^3 (NCI-H1650) per well. The following day, treatments were added in fresh media to triplicate wells. Cellular viability was determined 5 days later using the CellTiter-Glo Luminescent Cell Viability Assay kit (Promega), as directed in the manufacturer's protocol. Cell viability was assessed as percentage of control untreated cells.

[2] = Observation after conjugation to synthon (Method A); format: physicochemical; settings: after conjugation to Bcl-xLi synthon CZ
Description: as §1
A solution of Bond-Breaker™ tris(2-carboxyethyl)phosphine (TCEP) solution (10 mM, 0.017 mL) was added to a solution of antibody (10 mg/mL, 1 mL) preheated to 37° C. The reaction mixture was kept at 37° C. for 1 hour. The solution of reduced antibody was added to a solution of synthon (3.3 mM, 0.160 mL in DMSO) and gently mixed for 30 minutes. The reaction solution was loaded onto a desalting column (PD10, washed with Dulbecco's phosphate-buffered saline [DPBS] 3× before use), followed by DPBS (3 mL). The purified ADC solution was filtered through a 0.2 micron, low protein-binding 13 mm syringe-filter and stored at 4° C.

[3] = Size exclusion chromatography, % aggregate of ADC; format: physicochemical; settings: ADC with synthon CZ, conjugation Method A
Description: The DAR and percentage aggregation of ADCs synthesized were determined by LC-MS and size exclusion chromatography (SEC), respectively.
Size exclusion chromatography was performed using a Shodex KW802.5 column in 0.2 M potassium phosphate pH 6.2 with 0.25 mM potassium chloride and 15% IPA at a flow rate of 0.75 ml/min. The peak area absorbance at 280 nm was determined for each of the high molecular weight and monomeric eluents by integration of the area under the curve. The % aggregate fraction of the conjugate sample was determined by dividing the peak area absorbance at 280 nm for the high molecular weight eluent by the sum of the peak area absorbances at […] of the high molecular weight and monomeric eluents multiplied by 100%.

HCC38 cell line = test: Cell cytotoxicity of ADCs in HCC38 cell line; format: cell-based; settings: CZ conjugates
Description: The humanization of chAb18 generated 10 variants (described above in Table 9) that retained binding to human and cyno B7-H3 as assessed by FACS (the method of which is described above in Example 6). These variants were further characterized for binding by SPR and were successfully conjugated to the Bcl-xL inhibitor synthon CZ using Method A (described above) and assessed for cell cytotoxicity as described in Example 7. The parental chAb18 from which the variants were derived was also tested as a comparator. All humanized variants had similar binding properties as assessed by biacore, and retained binding activity to cell surface expressed as conjugates with the CZ synthon. The cytotoxicity of all of the variants as CZ synthons were similar to the chAb18 from which they were derived.
Humanized chAb18 variants were conjugated to the CZ synthon and tested for cytotoxicity in HCC38 cell line.

NCI-H146 cells = test: In vivo xenograft model of small cell lung cancer (NCI-H146); design: species or system mice; settings: 6 mg/kg/IP/QDx1
[4] = Aggregation of conjugates by SEC; format: physicochemical
[5] = Table 10, CZ conjugates of Ab18 variants
[6] = Table 14, CZ conjugates of Ab3 variants

Molecule	Conjugation observation [2]	IC50 (HCC38 cell line; Table 10) [nM]	TGD (%) (NCI-H146 cells; Table 11)	TGImax (%) (NCI-H146 cells; Table 11)	% agg by SEC [4, 5] [%]	also measured
B1	precipitated					cytotoxicity in cells expressing human B7-H3 (in words) [1]: weak cytotoxicity
B2	precipitated					cytotoxicity in cells expressing human B7-H3 (in words) [1]: weak cytotoxicity
B3	Precipitates					IC50 [1]: 81 nM; % agg by SEC [3]: 0.5%
B4	precipitated					cytotoxicity in cells expressing human B7-H3 (in words) [1]: weak cytotoxicity
B5		0.39	45	79	3.3	
B6		0.32	39	81	3.6	
B7		0.29	48	85	5.5	
B8		0.03	42	87	3.6	
B9		0.9	35	83	3.8	
B10		0.14	45	86	3.5	
B11	Clear					IC50 [1]: 0.26 nM; % agg by SEC [3]: 5.7%
B12						IC50 (HCC38 cell line; Table 14): 0.13 nM; TGD (%) (NCI-H146 cells; Table 15): 88%; TGImax (%) (NCI-H146 cells; Table 15): 91%; % agg by SEC [4, 6]: 4.9%
B13						IC50 (HCC38 cell line; Table 14): 0.53 nM; % agg by SEC [4, 6]: 3.3%
B14	Clear					IC50 [1]: 2.34 nM; % agg by SEC [3]: 5.6%

From patent publication US10640563B2, “Anti-B7-H3 antibodies and antibody drug conjugates” (AbbVie Inc., priority 2016, dated 2020)
